Data from patent US20180313827A1.

Legend:
[1] = target: Ddx4_N1_1 (disordered N-terminus of Ddx4 protein, forming Ddx4N1 membraneless organelles / proteinaceous phase) (Homo sapiens (Human)) (UniProt Q9NQI0); experiment: confocal fluorescence microscopy, partitioning inside vs outside Ddx4N1 organelles in vitro; 5 µM, 150 mM NaCl
[2] = target: Ddx4_N1_1 (disordered N-terminus of Ddx4 protein, forming Ddx4N1 membraneless organelles / proteinaceous phase) (Homo sapiens (Human)) (UniProt Q9NQI0); experiment: confocal fluorescence microscopy, partitioning inside vs outside Ddx4N1 organelles in vitro; 11.8 µM, 175 mM NaCl

Sequence of UniProt Q9NQI0 (Q9NQI0 other isoform, or with tags, fused parts or gaps limits assumed): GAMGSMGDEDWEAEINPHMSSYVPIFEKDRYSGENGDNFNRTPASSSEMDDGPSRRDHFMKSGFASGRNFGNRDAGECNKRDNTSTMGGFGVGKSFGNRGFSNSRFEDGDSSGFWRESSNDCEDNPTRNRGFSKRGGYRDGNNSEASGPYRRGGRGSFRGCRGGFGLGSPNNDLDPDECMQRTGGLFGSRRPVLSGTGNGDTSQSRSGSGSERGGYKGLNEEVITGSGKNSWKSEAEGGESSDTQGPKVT

ΔGpart (partition free energy into Ddx4N1 organelles) [1] [kJmol^-1]	ΔGpart (partition free energy into Ddx4N1 organelles) [2] [kJmol^-1]	Substance
1.6	–	GFP^-30 (acidic GFP, -30 surface charge)
–	-7.8	aB_GFP (alphaB-crystallin fused to GFP, oligomer)
